According to US9937265B2, “Self-assembling peptide and polysaccharide complexes” (University of Leeds, priority 2013, dated 2018):

Experiments:
Assay type in all cases: physicochemical
[1] = High resolution 1H-NMR study of peptide self-assembly as a function of concentration and time (c*); details: for c*: critical concentration for aggregation, physiological-like solution, with GAG estimated from monomer level at ~5000 μM total peptide
Method: High Resolution ^1H-NMR Study of Peptide Self-Assembly as a Function of Concentration
(2,2,3,3-d4)-trimethylsilyl-3-propionic acid (TMSP, chemical shift 0 ppm) an internal reference standard was added to all peptide solutions. NMR data were acquired at room temperature. A pre-saturation program was used to minimize the water peak, and 1024 scans were measured per spectrum. Sample spectra were recorded at various time-points after preparation to ensure the solutions had reached stable equilibrium. The aromatic multiplet at chemical shift 6.9-7.8 ppm was integrated, relative to the reference peak.
High resolution solution ^1H NMR was used to follow the self-assembly of the peptides in physiological-like solutions as a function of time. To measure self-assembly, the line width broadening of the NMR spectra is exploited. The population of peptide in an aggregated state gives rise to spectra that are so broad that they are lost in the baseline; in contrast, the population of peptide in monomeric state gives rise to high resolution spectra. By integrating the splitting pattern arising from the aromatic region and normalising it with respect to the peak observed due to a known standard, the fraction of monomer can be estimated.

[2] = Visual observation of gelation of peptide and peptide:GAG samples (systematic mixing study); details: for Gel appearance: 20 mg/ml (Table 3); for Time to gel 20 mg/ml / self-assembly and gelation / time to form a self-supporting gel (gelation time) / Gel lifetime 20 mg/ml: 20 mg/ml peptide; for c*gel: peptide alone
Method: Preparation of Peptide Solutions
Solutions of peptides were prepared directly in either D2O or H2O containing either 130 or 200 mM NaCl or PBS. Peptide concentrations in the millimolar range given for the NMR studies were values multiplied by an appropriate factor to account for the actual percentage peptide content. The samples were vortexed for 20 seconds, and then sonicated for 15 minutes. Solution pD was measured and adjusted to either 7.4 or 6.0±0.5 using a calibrated pH meter and the relation pD =pH meter reading +0.417. Any adjustment of pD, if necessary, was made with minimal μL volumes of either HCl or DCl and/or either NaOH or NaOD. Finally, solution vials were closed, sealed with PTFE tape, and then warmed to approximately 80° C. to maximise peptide solubility. Solutions were left to equilibrate at room temperature.
Preparation of Peptide:Glycosaminoglycan Gels.
The concentration of peptide was kept constant for each sample (20 mg/ml) and the molar ratio of GAG subunit to one peptide was increased. The samples were named by the number of GAG subunits to each peptide present e.g. P11-12:GAG 1:10=one P11-12 peptide monomer to ten GAG dimer subunits. GAG was added to peptide solutions after preparation as stated above. The mixtures were vortexed as heated again to ensure complete mixing.
The effects of mixing chondroitin sulphate GAG with the peptides were investigated. It was hypothesised that the charged GAG chains would interact electrostatically with the charged peptides. To establish whether such an interaction was possible, visual observations of a systematic mixing study was carried out and the morphology of the aggregates formed during mixing studied using TEM. • P11-4: […]

[3] = Rheological study of peptide and peptide:glycosaminoglycan gels (amplitude and frequency sweeps); details: for G′ at 2 Hz 20 mg/ml / G″ at 2 Hz 20 mg/ml: 2 Hz (walking frequency); for G′ at 2 Hz 20 mg/ml / G″ at 2 Hz 20 mg/ml / plateau elastic modulus G′N°: 25° C.; for J, lower limit of the distance between nearest cross links: calculated from plateau elastic modulus by rubber-like elasticity theory, T=298K; for plateau elastic modulus G′N° / Phase angle: peptide gels in PBS at 20 mg/ml; for Phase angle: 25° C. (Table 2)
Method: Rheological Study of Peptide:Glycosaminoglycan Gels
Measurements were performed using a cone-plate geometry (cone angle: 1°, diameter: 50 mm, gap: 0.033 mm). All the tests were performed at 25° C., utilizing a solvent trap and the atmosphere within was kept saturated to minimize evaporation of the peptide samples. To ensure the measurements were made in the linear viscoelastic regime (LVER), amplitude sweeps were performed in a shear strain controlled mode from 0.01-100%. Two amplitude sweeps were carried out for each sample (1 Hz and 20 Hz) and a strain level was chosen at which the elastic modulus (G′) and viscous modulus (G″) were independent of strain amplitude at the two different frequency levels. The dynamic moduli of the hydrogels were measured as a frequency function with the sweeps carried out between 1 and 20 Hz. Samples were allowed to equilibrate for 15 minutes once loaded prior to the start of testing. Fresh samples were used for the amplitude and frequency sweeps. After the frequency sweeps, two more amplitude weeps (1 Hz and 20 Hz) were carried out in a stress controlled mode to confirm the testing was performed within the LVER. The stress range was chosen based on the stress values from the frequency sweeps at 1 and 20 Hz: if these two values were then independent of stress amplitude, then this confirmed that testing was within the LVER.
Tests were conducted to provide a peptide gel of similar stiffness to that of the nucleus pulposus. Rheometry was carried out on the peptide gels in PBS at 20 mg/ml. Amplitude sweeps were first carried out to determine the LVER region.
The rheological properties of the peptide:GAG samples were examined and compared to the rheological properties of peptides alone to establish how the addition of GAG affected the material properties of the gels. The frequency sweeps from the study (data not shown) for the various peptide:GAG combinations can be summarized as follows: P11-4: GAG and viscous modulus vs. frequency, starting frequency 1 Hz, end frequency: 20 Hz, strain controlled: 0.15% (control), 0.175% (1:2) and 0.04% (1:10). Temp: 25° C. 20 days old. P11-8:GAG elastic and viscous modulus vs. frequency, starting frequency 1 Hz, end frequency: 20 Hz, Strain controlled: 0.1% (1:2 and 1:10), Temp: 25° C., 1.5 months old. P11-9:GAG elastic and viscous modulus vs. frequency, starting frequency 1 Hz, end frequency: 20 Hz, Strain controlled: 0.5%, Temp: 25° C. P11-12:GAG Elastic and viscous modulus vs. frequency, starting frequency 1 Hz, end frequency: 20 Hz, Strain controlled: 0.25% (1:0.5), 0.1% (1:2), 0.05% (1:10), 0.15% (1:100), Temp: 25° C. 1:0.5, 1:2 and 1:10 2 months old and 1:100 6 days old. • P11-4: […]

[4] = Peptide dissolution from gel into supernatant (UV spectroscopy, 279 nm); details: at 3-4 days, 20 mg/ml gel
Method: 2.5 ml of 130 mM NaCl, D2O, pD 7.4 supernatant was added on top of the SAP:GAG gels. The concentration of peptide dissolved into the supernatant as a function of time was determined via UV spectroscopy. The UV wavelength of 279 nm corresponds to the […] of the tryptophan residue, found in position 6 of the SAP, and so this can be used to determine the molar concentration of the peptide taking into account the molar extinction coefficient of the tryptophan residue.

| Substance | c* [1] | Gel appearance [2] | Time to gel 20 mg/ml [2] | self-assembly and gelation [2] | G′ at 2 Hz 20 mg/ml [3] | G″ at 2 Hz 20 mg/ml [3] | time to form a self-supporting gel (gelation time) [2] | Gel lifetime 20 mg/ml ([2]; unit in cell beside) | c*gel [2] | J, lower limit of the distance between nearest cross links [3] | plateau elastic modulus G′N° [3] | Phase angle [3] | Gel lifetime 20 mg/ml ([2]; yr and mths or words printed in the cell) | gel state on storage ([2]; after a year) | peptide dissolved from the gel [4] | gel stiffness / moduli compared, in words ([3]; frequency sweeps, compared with peptide alone or other gels) | time to reach equilibrium state of self-assembly ([1]; 1H NMR aromatic integral vs time, without GAG) |
| --- | --- | --- | --- | --- | --- | --- | --- | --- | --- | --- | --- | --- | --- | --- | --- | --- | --- |
| CH3CO-O-Q-O-F-O-W-O-F-O-Q-O-NH2 [Peptide P11-28] | >3100 µM | Clear liquid | never | does not self-assemble | – | – | – | – | – | – | – | – | – | – | – | – | – |
| CH3CO-Q-Q-O-F-O-W-O-F-O-Q-Q-NH2 (QQXFXWXFXQQ; HELM PEPTIDE1{[ac].Q.Q.[Orn].F.[Orn].W.[Orn].F.[Orn].Q.Q.[am]}$$$$V2.0; SMILES CC(=O)N[C@@H](CCC(N)=O)C(=O)N[C@@H](CCC(N)=O)C(=O)N[C@@H](CCCN)C(=O)N[C@@H](Cc1ccccc1)C(=O)N[C@@H](CCCN)C(=O)N[C@@H](Cc1c[nH]c2ccccc12)C(=O)N[C@@H](CCCN)C(=O)N[C@@H](Cc1ccccc1)C(=O)N[C@@H](CCCN)C(=O)N[C@@H](CCC(N)=O)C(=O)N[C@@H](CCC(N)=O)C(N)=O) [Peptide P11-14] | >3600 µM | Clear liquid | never | does not self-assemble | – | – | – | – | – | – | – | – | – | – | – | – | – |
| CH3CO-Q-Q-R-F-E-W-E-F-E-Q-Q-NH2 (Ac-QQRFEWEFEQQ-NH2) [Peptide P11-4] | 310 ± 140 µM | Slightly cloudy | mins-hours | – | 1,065 Pa | 205 Pa | hours | >1 mth | 2000 ± 600 µM | – | – | – | – | – | – | – | – |
| CH3CO-Q-Q-R-F-O-W-O-F-E-Q-Q-NH2 (QQRFXWXFEQQ; HELM PEPTIDE1{[ac].Q.Q.R.F.[Orn].W.[Orn].F.E.Q.Q.[am]}$$$$V2.0; SMILES CC(=O)N[C@@H](CCC(N)=O)C(=O)N[C@@H](CCC(N)=O)C(=O)N[C@@H](CCCNC(=N)N)C(=O)N[C@@H](Cc1ccccc1)C(=O)N[C@@H](CCCN)C(=O)N[C@@H](Cc1c[nH]c2ccccc12)C(=O)N[C@@H](CCCN)C(=O)N[C@@H](Cc1ccccc1)C(=O)N[C@@H](CCC(=O)O)C(=O)N[C@@H](CCC(N)=O)C(=O)N[C@@H](CCC(N)=O)C(N)=O) [Peptide P11-8] | 400 ± 100 µM | Inhomogenous | days | – | 4,881 Pa | 552 Pa | days | – | 2000 ± 600 µM | 11.6 nm | 5,221 kg m^−1s^−2 | ~8° | Still some self- | – | – | – | – |
| CH3CO-S-S-R-F-E-W-E-F-E-S-S-NH2 (Ac-SSRFEWEFESS-NH2) [Peptide P11-9] | 1160 ± 175 µM | Clear self- | minutes | – | 8 Pa | 5 Pa | minutes | – | 4500 ± 1500 µM | – | – | – | – | still a self-supporting gel | – | – | – |
| CH3CO-S-S-R-F-O-W-O-F-E-S-S-NH2 (SSRFXWXFESS; HELM PEPTIDE1{[ac].S.S.R.F.[Orn].W.[Orn].F.E.S.S.[am]}$$$$V2.0; SMILES CC(=O)N[C@@H](CO)C(=O)N[C@@H](CO)C(=O)N[C@@H](CCCNC(=N)N)C(=O)N[C@@H](Cc1ccccc1)C(=O)N[C@@H](CCCN)C(=O)N[C@@H](Cc1c[nH]c2ccccc12)C(=O)N[C@@H](CCCN)C(=O)N[C@@H](Cc1ccccc1)C(=O)N[C@@H](CCC(=O)O)C(=O)N[C@@H](CO)C(=O)N[C@@H](CO)C(N)=O) [Peptide P11-12] | 2300 ± 750 µM | Cloudy self- | minutes | – | 20,510 Pa | 3067 Pa | minutes | – | 2300 ± 750 µM | 7.2 nm | 22,285 kg m^−1s^−2 | ~9° | – | – | 39.9±9.15% | forms the stiffest gel | around 1 month |
